Target: T1, Sec63p (Saccharomyces cerevisiae (endogenous in …, UniProt P14906 1-663))
T1 sequence (looked up): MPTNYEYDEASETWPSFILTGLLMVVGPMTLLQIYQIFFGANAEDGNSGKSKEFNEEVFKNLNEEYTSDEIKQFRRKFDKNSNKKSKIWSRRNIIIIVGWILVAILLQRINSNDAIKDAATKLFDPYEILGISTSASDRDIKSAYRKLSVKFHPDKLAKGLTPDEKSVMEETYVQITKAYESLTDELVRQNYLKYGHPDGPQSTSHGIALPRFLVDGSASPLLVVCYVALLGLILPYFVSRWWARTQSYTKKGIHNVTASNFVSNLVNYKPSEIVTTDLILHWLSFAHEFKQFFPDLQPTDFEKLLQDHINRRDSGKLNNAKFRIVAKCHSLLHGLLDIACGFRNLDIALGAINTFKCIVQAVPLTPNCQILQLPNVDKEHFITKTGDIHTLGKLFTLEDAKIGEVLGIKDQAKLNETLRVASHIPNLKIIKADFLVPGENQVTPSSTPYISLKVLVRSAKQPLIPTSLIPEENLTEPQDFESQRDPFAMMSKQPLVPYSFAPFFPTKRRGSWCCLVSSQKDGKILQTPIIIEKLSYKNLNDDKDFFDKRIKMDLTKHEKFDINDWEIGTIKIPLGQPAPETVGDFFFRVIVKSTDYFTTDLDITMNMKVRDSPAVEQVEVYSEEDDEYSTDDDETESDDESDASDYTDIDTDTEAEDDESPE
Experiment: co-elution on hydroxylapatite chromatography

B1: BiP/Kar2p (natural protein)
chain: not shown
- stoichiometry N: 1.4 Sec63p per BiP

From publication PMC2290880 (The Journal of Cell Biology, 1993)
